From US9067983B2, “Anti-inflammatory antibodies and uses therefor” (DecImmune Therapeutics, Inc., priority 2009, dated 2015)

Key:
[1] = target: N2 peptide (N2 region of non-muscle myosin II heavy chain) (Mus musculus, UniProt Q61879); assay: binding of hybridoma antibodies to the N2 peptide in vitro
Procedure: (§1) A panel of mouse hybridomas were prepared to identify the N2 region of non-muscle myosin II heavy chain. Thus, mice were immunized with the N2 peptide (Ac-LMKNMDPLNDNV (SEQ ID NO: 33)) coupled to a carrier protein (KLH). This region (N2) is highly conserved and identical in mouse and man. […] 12A6 is a IgG2b isotype. Its VH most closely matches the germ line gene 3609.11.169 sequence paired with DH: DSP2/DFL16.1 and its light chain is a V kappa 8-27 with JK1. 21G6 is an IgG1 isotype with its VH matching J558.35; DH: DSP2.6/DSP2.4/DSP2.3 and JH: JH3. Its light chain is V kappa hf24 and JK4.

N2 self-peptide = assay: binding of anti-N2 antibody in vivo in heart after LAD occlusion and reperfusion (confocal microscopy); set-up: species or system mouse; details: B6 mice
Procedure: Specificity of the anti-N2 antibody. B6 mice were injected i.v. with fluorescently-labeled anti-N2 antibody (12A6) and anti-CD31 antibody prior to 60 min LAD occlusion and 30 min reperfusion. Following treatment, hearts were collected, fixed, and analyzed by confocal microscopy. The area at risk (left ventricle) was compared with the non-risk area (right ventricle). Quantification of the individual antibody staining as well as the merged images both in the area at risk and non-risk area is shown in FIG. 5.

B6 mice = assay: murine myocardial infarction model (1 h LAD occlusion, 24 h reperfusion); assay type: in vivo, mouse; details: pretreatment with 100 ugs of Fab'2 fragment (Fc removed)
Procedure: as §1
B6 mice were subjected to 1 h LAD occlusion followed by 24 h reperfusion. […] Following reperfusion, both serum troponin-I levels (A) and mouse IgM deposition (B) were analyzed and statistical significance for each was evaluated by Student's t test (FIG. 3).
[…] Serum troponin-I levels were measured after 24 h reperfusion.

B1: 21G6: murine anti-N2 IgG1 produced by hybridoma PTA-9393; VH SEQ ID NO: 14, VL SEQ ID NO: 20 (antibody, listed as Mus sp., V domains shown)
VH: QVQLQESGAELVKPGASVKLSCKASGYTFTSYYMYWVKQRPGQGLEWIGGINPSNGGTNFNEKFKSKATLTVDKSSSTAYMQLSSLTSEDSAVYYCTRWGYDREWFAYWGQGTLVTVSA
VL: DIVMTQAAPSVPVTPGESVSISCRSSKSLLHSNGNTYLYWFLQRPGQSPQVLIYRMSNLASGVPDRFSGSGSGTAFTLRISRVEAEDVGVYYCMQHLEYPFTFGSGTKLEIKR
binding to the N2 peptide in vitro [1]: bind the N2 peptide
binding to the N2 self-peptide in vivo (N2 self-peptide): bind the N2 peptide
ischemia reperfusion injury (B6 mice): blocks ischemia reperfusion injury
